Legend:
endogenous human iRhom2 = target: T1, endogenous human iRhom2 (human, UniProt Q6PJF5 1-856); assay: cell-based or functional assay
T1 sequence: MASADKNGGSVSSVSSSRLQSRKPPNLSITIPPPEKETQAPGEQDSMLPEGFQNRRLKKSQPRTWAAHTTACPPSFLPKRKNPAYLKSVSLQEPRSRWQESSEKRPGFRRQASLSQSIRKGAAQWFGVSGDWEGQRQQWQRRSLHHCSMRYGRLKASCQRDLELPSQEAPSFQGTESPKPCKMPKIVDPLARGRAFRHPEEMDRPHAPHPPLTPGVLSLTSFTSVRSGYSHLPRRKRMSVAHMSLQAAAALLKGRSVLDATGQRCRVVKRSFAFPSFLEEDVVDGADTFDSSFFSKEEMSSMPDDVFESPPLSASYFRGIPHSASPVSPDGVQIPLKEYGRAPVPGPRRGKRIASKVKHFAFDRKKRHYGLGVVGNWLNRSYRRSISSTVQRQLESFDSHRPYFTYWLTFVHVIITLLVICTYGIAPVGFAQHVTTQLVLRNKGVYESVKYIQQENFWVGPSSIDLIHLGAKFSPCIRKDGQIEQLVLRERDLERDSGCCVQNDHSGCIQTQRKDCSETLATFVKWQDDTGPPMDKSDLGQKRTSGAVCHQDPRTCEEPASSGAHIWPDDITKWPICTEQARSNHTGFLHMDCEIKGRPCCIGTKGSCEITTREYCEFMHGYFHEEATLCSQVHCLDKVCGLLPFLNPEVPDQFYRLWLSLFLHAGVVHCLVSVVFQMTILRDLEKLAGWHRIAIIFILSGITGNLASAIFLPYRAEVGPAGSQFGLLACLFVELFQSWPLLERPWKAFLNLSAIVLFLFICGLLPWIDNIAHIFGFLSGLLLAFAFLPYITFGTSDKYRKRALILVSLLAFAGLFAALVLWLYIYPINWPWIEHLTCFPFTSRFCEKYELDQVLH

[1] = target: T2, human iRhom1 full length wild type C-terminally tagged with 3 consecutive copies of the T7 epitope (human, UniProt Q96CC6 1-855); assay: FACS on MEF-DKO-hiR1-FL-WT-T7 cells
T2 construct: also called hiR1-FL-WT-T7; human iRhom1 variant
T2 sequence: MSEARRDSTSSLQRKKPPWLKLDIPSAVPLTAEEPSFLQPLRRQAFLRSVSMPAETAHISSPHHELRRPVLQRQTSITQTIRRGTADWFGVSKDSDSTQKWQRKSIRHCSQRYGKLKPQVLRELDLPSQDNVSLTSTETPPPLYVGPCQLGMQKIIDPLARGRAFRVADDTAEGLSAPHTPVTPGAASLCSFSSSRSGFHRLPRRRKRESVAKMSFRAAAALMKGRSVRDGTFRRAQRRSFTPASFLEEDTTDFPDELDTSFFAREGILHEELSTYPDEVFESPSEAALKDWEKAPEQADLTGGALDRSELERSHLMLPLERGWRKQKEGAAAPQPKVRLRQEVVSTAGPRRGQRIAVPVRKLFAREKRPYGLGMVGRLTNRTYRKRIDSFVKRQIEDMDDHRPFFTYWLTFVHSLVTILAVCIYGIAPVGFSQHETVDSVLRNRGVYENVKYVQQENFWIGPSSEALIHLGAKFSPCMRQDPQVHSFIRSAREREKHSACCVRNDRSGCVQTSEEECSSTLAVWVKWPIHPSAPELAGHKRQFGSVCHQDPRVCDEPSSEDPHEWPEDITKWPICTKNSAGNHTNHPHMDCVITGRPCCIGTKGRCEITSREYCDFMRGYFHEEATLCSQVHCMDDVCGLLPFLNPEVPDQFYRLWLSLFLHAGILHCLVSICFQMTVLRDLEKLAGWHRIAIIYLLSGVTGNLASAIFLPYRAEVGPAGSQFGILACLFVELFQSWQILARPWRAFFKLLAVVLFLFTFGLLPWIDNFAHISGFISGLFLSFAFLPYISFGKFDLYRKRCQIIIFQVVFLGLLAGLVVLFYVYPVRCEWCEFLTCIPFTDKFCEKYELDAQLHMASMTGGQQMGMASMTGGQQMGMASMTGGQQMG
Method: In brief, in addition to immortalized MEF-DKO-EV control cells and MEF-DKO-hiR2-FL-WT-T7 cells (as already described in example 3), MEF-DKO-hiR1-FL-WT-T7 cells were harvested with 10 mM EDTA in PBS, washed and resuspended in FACS buffer (PBS, 3% FBS, 0.05% sodium azide), and seeded in Nunc U-bottom 96-well plates (Thermo Fisher Scientific, USA) at approximately 3×10⁵ cells per well. To pellet cells and remove supernatants, the plates were centrifuged at 1,500 rpm and 4° C. for 3 minutes. For primary staining, cells were resuspended in 100 μl per well of either FACS buffer alone (controls), mouse monoclonal anti-T7 IgG (Merck Millipore, USA) at 3 μg/ml FACS buffer or the humanized antibodies 16-B-03, 16-B-05, 16-B-07, 23-B-04, 42-B-02, 42-B-04 of the invention also at 3 μg/ml FACS buffer and incubated on ice for 1 hour. Afterwards, plates were centrifuged at 1,500 rpm and 4° C. for 3 minutes and washed twice with 200 μl per well of FACS buffer. For secondary staining of previous anti T7 staining, cells were spun down and resuspended in 100 μl per well of PE-conjugated goat anti-mouse IgG F(ab′)2 detection fragment (Dianova, Germany) diluted 1:100 in FACS buffer. For secondary staining of previous staining with humanized antibodies of invention, cells were spun down and resuspended in 100 μl per well of PE-conjugated goat anti-human IgG F(ab′)2 detection fragment (Dianova, Germany) diluted 1:100 in FACS buffer. Protected from light, the cell suspensions were incubated on ice for 1 hour. Plates were then centrifuged at 1,500 rpm and 4° C. for 3 minutes and washed three times with 200 μl per well of FACS buffer. Finally, cells were resuspended in 150 μl per well of FACS buffer and analyzed using a BD Accuri™ C6 Plus flow cytometer (Becton Dickinson, Germany).

B1: humanized antibody 16-B-05 (antibody, V domains shown)
VH: QVTLRESGPALVKPTQTLTLTCTFSGFSLSTFALGVGWIRQPPGKALEWLAHIWWDEDKYYNPALKSRLTISKDTSKNQVVLTITNMDPVDTATYYCARITTYYYGMDYWGQGTLVTVSS
VL: EIVMTQSPDFQSVTPKEKVTITCRASQSIGNHLHWYQQKPDASPKLLIKYASQSISGVPSRFSGSGSGTDFTLTINSLEAEDAATYFCQQSYNWPLTFGQGTKLEIK
notes: Tested as whole humanized antibody produced in CHO cells and detected with anti-human IgG; the general methods speak of human IgG1/Kappa; The printed LCVD reads SRESGSG where the printed cDNA encodes SRFSGSG; also called clone 16-B-05
- percent inhibition of LPS-induced release of TNFα from PBMCs from healthy donors (ELISA, antibody 3 µg/ml) (endogenous human iRhom2): 73.5%
- percent inhibition of LPS-induced release of TNFα from THP-1 cells (ELISA, antibody 3 µg/ml) (endogenous human iRhom2): 78.7%
- percent inhibition of PMA-induced release of HB-EGF from PBMCs from healthy donors (ELISA, antibody 3 µg/ml) (endogenous human iRhom2): 74.8%
- percent inhibition of PMA-induced release of HB-EGF from THP-1 cells (ELISA, antibody 3 µg/ml) (endogenous human iRhom2): 83%
- percent inhibition of PMA-induced release of HB-EGF from U-937 cells (ELISA, antibody 3 µg/ml) (endogenous human iRhom2): 99.7%
- percent inhibition of PMA-induced release of IL-6R from PBMCs from healthy donors (ELISA, antibody 3 µg/ml) (endogenous human iRhom2): 79%
- percent inhibition of PMA-induced release of IL-6R from THP-1 cells (ELISA, antibody 3 µg/ml) (endogenous human iRhom2): 74%
- percent inhibition of PMA-induced release of IL-6R from U-937 cells (ELISA, antibody 3.33 µg/ml) (endogenous human iRhom2): 81.7%
- percent inhibition of PMA-induced release of TGFα from PC3 cells (ELISA, antibody 10 µg/ml) (endogenous human iRhom2): 23.8%
- percent inhibition of PMA-induced release of TNFα from U-937 cells (ELISA, antibody 3.33 µg/ml) (endogenous human iRhom2): 89%
- binding result [1]: no binding (tested: 3 µg/ml)

Reference: patent US20240166767A1 (SCIRHOM, published 2024)
